Measured values taken from article PMC11108154.
“And” between values parts separate entries of the source, which are not always exact repeats. Equal values may be shown once.

Key:
[1] = target: AMP-glucagon (generic synthetic glucagon for injection, Amphastar Pharmaceuticals) (UniProt P01275); experiment: SEC; SEC-HPLC of expired lots (end of shelf life); Phenomenex Yarra 3 um SEC-2000, isocratic 55% 0.1% TFA / 45% acetonitrile, 1.000 mL/min, ambient temperature, UV 214 nm; reconstituted with the included diluent and tested immediately; monomer and dimer told by a calibration curve
[2] = target: ELI-glucagon (Eli Lilly's Glucagon, recombinant, reference listed drug) (UniProt P01275); experiment: as above
[3] = target: ELI-glucagon (Eli Lilly's Glucagon, recombinant, reference listed drug) (UniProt P01275); experiment: SEC; SEC-HPLC of recently released lots; Phenomenex Yarra 3 um SEC-2000, isocratic 55% 0.1% TFA / 45% acetonitrile, 1.000 mL/min, ambient temperature, UV 214 nm; reconstituted with the included diluent and tested immediately; monomer and dimer told by a calibration curve

AMP-glucagon (generic synthetic glucagon for injection, Amphastar Pharmaceuticals) (from UniProt P01275 53-81) (peptide)
% Dimer by SEC-HPLC [1]: 0.062% and 0.08% and 0.115% | stoichiometry N [1]: 2

ELI-glucagon (Eli Lilly's Glucagon, recombinant, reference listed drug) (from UniProt P01275 53-81) (peptide)
% Dimer by SEC-HPLC [2]: 0.133% and 0.097% and 0.144% | stoichiometry N [2]: 2 | % Dimer by SEC-HPLC [3]: 0.04% and 0.042% and 0.038% | stoichiometry N [3]: 2
